Experimental data from patent publication US20170183413A1 (CELLECTIS, published 2017).

Biological target: T1, CD123-Fc protein (fusion of the extracellular domain of the human CD123 protein with a murine IgG1 Fc … (human; mouse, UniProt P26951 19-305)
T1 construct: extracellular domain; also called fusion protein; not shown: murine IgG1 Fc fragment
T1 sequence (looked up): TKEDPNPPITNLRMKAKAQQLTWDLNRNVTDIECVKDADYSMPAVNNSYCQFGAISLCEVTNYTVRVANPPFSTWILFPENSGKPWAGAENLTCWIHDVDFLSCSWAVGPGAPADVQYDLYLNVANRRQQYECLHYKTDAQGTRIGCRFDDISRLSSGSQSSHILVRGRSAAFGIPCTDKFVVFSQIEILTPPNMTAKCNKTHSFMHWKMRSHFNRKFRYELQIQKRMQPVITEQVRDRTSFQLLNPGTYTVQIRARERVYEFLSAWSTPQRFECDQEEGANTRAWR
Experiment: flow cytometry on transduced T-cells, CD123-Fc fusion protein detected with PE-conjugated anti-mouse Fc
Experimental: Transduction of T-cells with recombinant lentiviral vectors expression the CAR was carried out three days after T-cell purification/activation. Lentiviral vectors were produced by Vectalys SA (Toulouse, France) by transfection of genomic and helper plasmids in HEK-293 cells. Transductions were carried out at a multiplicity of infection of 5, using 10⁶ cells per transduction. CAR detection at the surface of T-cells was done using a recombinant protein consisting on the fusion of the extracellular domain of the human CD123 protein together with a murine IgG1 Fc fragment (produced by LakePharma). Binding of this protein to the CAR molecule was detected with a PE-conjugated secondary antibody (Jackson Immunoresearch) targeting the mouse Fc portion of the protein, and analyzed by flow cytometry. […]
CAR detection was done using a fusion protein in which the extracellular domain of the human CD123 protein was fused to a mouse IgG1 derived Fc fragment. Binding of the CAR at the cell surface with the CD123 portion of the fusion protein was detected with anti-Fc PE-conjugated antibody and analyzed by flow cytometry. FIG. 9 represents the % of CAR+ or of Blue fluorescent protein (BFP+) cells (measured by FACS analysis) at Day 8 or 10 post transduction for two different donors.

B1: Klon43-v3 CAR (Klo43-3, anti-CD123 chimeric antigen receptor, structure V-3: Klon43 scFv, CD8alpha hinge, CD8alpha transmembrane domain, 41BB intracellular … (other)
chain: EVKLVESGGGLVQPGGSLSLSCAASGFTFTDYYMSWVRQPPGKALEWLALIRSKADGYTTEYSASVKGRFTLSRDDSQSILYLQMNALRPEDSATYYCARDAAYYSYYSPEGAMDYWGQGTSVTVSSGGGGSGGGGSGGGGSMADYKDIVMTQSHKFMSTSVGDRVNITCKASQNVDSAVAWYQQKPGQSPKALIYSASYRYSGVPDRFTGRGSGTDFTLTISSVQAEDLAVYYCQQYYSTPWTFGGGTKLEIKRTTTPAPRPPTPAPTIASQPLSLRPEACRPAAGGAVHTRGLDFACDIYIWAPLAGTCGVLLLSLVITLYCKRGRKKLLYIFKQPFMRPVQTTQEEDGCSCRFPEEEEGGCELRVKFSRSADAPAYQQGQNQLYNELNLGRREEYDVLDKRRGRDPEMGGKPRRKNPQEGLYNELQKDKMAEAYSEIGMKGERRRGKGHDGLYQGLSTATKDTYDALHMQALPPR
notes: Chimeric antigen receptor on the surface of human T cells (mRNA transfection or lentiviral transduction); 44; In the lentiviral vector the CAR is coupled to BFP through a 2A peptide; also called CAR Klon 43 V3; Klon43 CAR
binding result: binds

B2: 32716-v3 CAR (32716-3, anti-CD123 chimeric antigen receptor, structure V-3: 32716 scFv, CD8alpha hinge, CD8alpha transmembrane domain, 41BB intracellular … (other)
chain: QIQLVQSGPELKKPGETVKISCKASGYIFTNYGMNWVKQAPGKSFKWMGWINTYTGESTYSADFKGRFAFSLETSASTAYLHINDLKNEDTATYFCARSGGYDPMDYWGQGTSVTVSSGGGGSGGGGSGGGGSDIVLTQSPASLAVSLGQRATISCRASESVDNYGNTFMHWYQQKPGQPPKLLIYRASNLESGIPARFSGSGSRTDFTLTINPVEADDVATYYCQQSNEDPPTFGAGTKLELKTTTPAPRPPTPAPTIASQPLSLRPEACRPAAGGAVHTRGLDFACDIYIWAPLAGTCGVLLLSLVITLYCKRGRKKLLYIFKQPFMRPVQTTQEEDGCSCRFPEEEEGGCELRVKFSRSADAPAYQQGQNQLYNELNLGRREEYDVLDKRRGRDPEMGGKPRRKNPQEGLYNELQKDKMAEAYSEIGMKGERRRGKGHDGLYQGLSTATKDTYDALHMQALPPR
notes: Chimeric antigen receptor on the surface of human T cells; 38; In the lentiviral vector the CAR is coupled to BFP through a 2A peptide; also called CAR 32716V3
binding result: binds
